Reference: the nanobody polyreactivity screen of Harvey et al. (2022)

Test: yeast display, Sf9 membrane polyspecificity reagent, FACS + sequencing; frameworks hold sequencing errors
How it was run: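 Nanobodies came from a synthetic yeast display library in Saccharomyces cerevisiae BJ5465, induced with galactose for 36–48 hours and stained for 1 hour at 4 °C with 10% biotinylated, detergent-solubilized Sf9 membrane reagent. Cells were enriched on streptavidin microbeads and then FACS-sorted, with low and high (top ~1%) gates set on anti-HA fluorescence for expression and streptavidin fluorescence for reagent binding. Each polyreactivity label reflects the gate a clone came from. Genes were amplified by colony PCR, sequenced by MiSeq 2 × 250 and filtered by CDR length.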

Row | Sequence | polyreactivity (PSR sort gate)
1 | QVQLVESGGGLVQAGGSLRLSCAASGFTFSDNAMGWYRQAPGKERELVAAISRSGGNTHYADSVKGRFTISRDNAKNTVFLQMNSLKPEDTAVYYCAARPPGGYLYDYWGQGTQVTVSS | high polyreactivity
2 | QVQLVESVGGLVQAGGSLRLSCAASGFIQGAYAMGWYRPAPGKERELVAAITSSGGSTYYADSVKGRFTISRDNAKNTVYLQMNSLKPEDTAVYYCNTVYVYGPEYDYWGQGTQVTVSS | high polyreactivity
3 | QVQLVESGGGLVQAGGSLRLSCAASGRIFTWNAMGWYRQAPGKERDLVARISSGTRTNYADSVKGRFTISRDNAKNTVYLQMNSLKPEDTAVYYCAAQSRPPFVKQYWWQRDYWGQGTQVTVSS | high polyreactivity
4 | QVQLVESGGGLVQAGGSLRLSCAASGRTFEPNAMGWYRPAPGKERELVAAISSSDGSTYYADSVKGRFTISRDNAKNTVYLQMNSLKPEDTAVYYCAADAGYLYDWPYNYYYWGQGTQVTVSS | low polyreactivity
5 | QVQLVESGGGLVQAGGSLRLSCAASGGTFQLNAMGWYRQAPGKERELVATITTGGSTYADSVKGRFTISRDNAKNTVYLQMNSLKPEDTAVYYCNKTCFLVKLDYWGQGTQVTVSS | low polyreactivity
6 | QVQHVESGGGLVQAGGSLRLSCAASGSIFAYYAMGWYRQAPGKERELVAAISYRGGSTYYADSVKGRFTISRDNAKNTVYLQMNSLKPEDTAVYYCNAGGRRRIFAHSSTGDYWGQGTQVTVSS | high polyreactivity
7 | QGQLVESGGGLVQAGVSLRLSCAASGSIFGFYGMGWYRQAPGKERELVAAISYRGGNTYYADSVKGRFTSSRDNAKNTVFLQKNSLKPEDTAVYYCNSMWKHGAYRGAYGYWGQGTQVTVSS | high polyreactivity
8 | QVQLVESGGGLVQAGGSLRLSCAASGSTFRGYAMGWYRQAPGKEREFVAAITYTGSSTTYADSVKGRFTISRDNAKNTVYLQMNSLKPEDTAVYYCNKYTRFASSNMYYWGQGTQVTVSS | high polyreactivity
9 | QVQLVESGGGLVQAGGSLRLSCAASGRTFGKNAMGWYRQAPGKERELVAAISGSGGSTYYADSVKGRFTISRDNAKNTVSLQMNSLKPEDTADYYCAKSYYGKYYPSDYWGQGTQVTVSS | low polyreactivity
10 | QDQLVESGGGLVQAGGSLRLSCAASGSIFVQYAMGWYRQAPGKERELVATISSSGGSTYYADSVKGRFTISRDNAKNTVYLQMNCLKPEDTAVYYCAADWTLDPSYGYYADDYWGQGTQVTVSS | low polyreactivity
11 | QVQLVESGGGLVQAGGSLRLSSAASGSISDSYAMGWYRQAPGKERELVAAITSGDSTYYADSVKGRFTISRDNAKNTVYLQMNSLKPEDTAVYFCAKRVSRVRGYVFTDWSEYDYWGQGTQVTVSS | low polyreactivity
12 | QVQLVESGGGLVQAGGSLRLSCAASGSIFAYYAMGWYRQAPGKERELVAAISGTGGSTNYADSVKGRFTISRDNAKNTVYLQMNSLKPEDTAVYYCAKDYSFQWRNEFNLAGEYDYWGQGTQVTVSS | low polyreactivity
13 | QDQLVESGGGLVQAGGSLRLSCAASGSIFWLYTMGWYRQAPGKERELVAAITGSGSSTYYADSVKGRFTISRDNAKNTVYLQMNSLKPEDTAVYYCAAYWSSARRRYDYWGQGTQVTVSS | high polyreactivity
14 | QVQLVESGGGLDQAGGSLRLSCAASGSTFSGYAMGWYRQAPGKERELVATITRRGGNTYYADSVKGRFTISRDNAKNTVYLQMNSLKPEDTAVYYCAKDGRVHSPYDYWGQGTQVTVSS | low polyreactivity
15 | QVQLVESGGGLVQAGGSLRLSCAASGSTFSVYAMGWYRQAPGKERELVAAITWRGGTTYYADSVKGRFTISRDYAKNTVYLQMNSLKPEDTAVYYCNADWWRTLESDYWGQGTQVTVSS | low polyreactivity
16 | QVQLVESGGGLVQAGGSLSISCAASGSIFLAYDMGWYRPAPGKARELVAAITAGTGSTYYADSVKGRFTISRDNAKNTVYLQMTSLKPDDTAVYYCAAELWGGTYGEYEYWGQGTQVTVSS | low polyreactivity
17 | QVQLVESGGGLVQAGGSLRLSCAASGFIITSNAMGWYRQAPGKERELVAAITWSGGRTYYADSVKGRFTISRDNAKNTVYLQMNSLKPEDTAVYYCAAGYYKGFTLVRVIFDYWGHGTQVTVSS | low polyreactivity
18 | QVLLVESGGGLVQAGGSHRLSCAASGFIFWDYAKGGYRQAPGKERELVAAITSGGGSTYYADSVKGRFTISRDNAKNTVYLQMNSLKPEDTAVYYCNAVSWEGYDFDYWGQGTQVTVSS | high polyreactivity
19 | QVQLVESGGGLVQAGGSLRLSCAASGIIFHGNAMGWYRQAPGKERELVAAIRWSGGSTYYADSVKGRFTISRDNAKNSVYLPMNSLKPEDTAVYYCNAGRSWRRTHYDYWGQGTQVTVSS | high polyreactivity
20 | QVQLVESGGGLVQAGGSLRLSCAASGRTFKYYALGWYRQAPGKERELVAAISNGGRTNYADSVKGRFTISRDNAKNTVYLQMNSLKPEDTAFYYCAKRTFYFSDYDYWGQGTQVTVSS | high polyreactivity
21 | QVQLVESGGGLVQAGGSLRLSCAASGFTFLPYVMGWYRQAPGKERELVAAISSSGGSTYYADSVKGRFTISRDNAKNTVYLQMNSLKPEDTAVYYCAKEIGVRRRDYEDYEYWGQGTQVTVSS | low polyreactivity
22 | QVQLVESRGGLVQAGGSLRLSCAASGRTLKYNVMGWYRQAPGKERELVASITSRGGSTRYADSVKGRFTISRDNAKNTVYLQMNSLKPEDTAVYYCAARYTTARSSYDYWGQGTQVTVSS | high polyreactivity

Row | Sequence | polyreactivity (PSR sort gate)
23 | QVQLVESGGGLVQAGGTLRLSCAASGFTFRYYAMGWYRQAPGKERELVAAISRGGTTNYADSVKGRFTISRDNAKNTVYLQMNSLKPEDTAVYYCAARQYYSRVTYDYWGQGTQVTVSS | high polyreactivity
24 | QVQLVESGGGLVQAGGSLRLSCAASGRIIGNYAMGWYRQAPGKERELVAAISNGGSTNYADSVKGRFTISRDNAKNTVYLQMNSLKPEDTAVYYCNADQWAVIWGYMVLDFYYWGQGTQVTVSS | low polyreactivity
25 | QVQLQESGGGLVQAGGSLRLSCAASGTISPLPAMGWYRQAPGKEPEFVAGIDTGAITNYADSVKGRFTISRDNAKNTVYLQMNSLKPEDTAVYYCAVFPAAYDYYERYYTYWGQGTQVTVIS | low polyreactivity
26 | QVQLVESGGGLVQAGGSLRLTCAASGLIFPFYAMGWYRQATGKERELVAAISSRGGSTYYADSVKGRFTISRDNAKNTVYLQMSSLKPEDTAVYYCAADYGEEYEYSGQGTQVTVSS | high polyreactivity
27 | QVQLVESGGGLVQAGGSLRLSCAASGSIFHVNAMGWYRQAPGKERELVAGISDGGSTYYADSVKGRFTISRDNAKNTVYLQMNSLKPEDTAVYYCSADDGYTYYWAGYDSWGQGTQVTVSS | low polyreactivity
28 | QLQLVESGGGLVQAGGSLSLSCAASGRTVYGYSMGWYRQAPGKERELVAAISKTGGSTYYADSVKGRFTISRDNAKNTVYLQMNSLKPEDTAVYYCNARDTSGFTRFSSKYDYWGQGTQVTVSS | high polyreactivity
29 | QVQLVESGGGLVQAGGSLRLSCAASGSTFGENAMGWYRQAPGKERELVAGINSTGGSTYYADSVKGRFTISRDHAKNNVYLQMNSLNPEDTAVYYCAAGDWYSGNTSHFYYWGQGTQVTVSS | low polyreactivity
30 | QVQLVESGGGLVQAGGSLRLSCAASGLIFYVYAMGWYRQAPGKERELVASITWSGGRTYYADSVKGRFTISRDNAKNTVYLQMNSLKPEDTAVYFCAKDWWGGPPNVYHSEYEYWGQGTQVTVSS | low polyreactivity
31 | QVQLVESGGGLVQAGGSLRLSCAASGRTFSRNAMGWYRPAPGKERQLVAAIRGSGTGTYYADSVKGRFTISRDNAKNTVYLQMNSLKPEDTPVYYSNADFISTRPPKATDEDYWGQGTQVTVSS | high polyreactivity
32 | QVQLVESAGGLVQAGGSLRLSCAASGRIFSTYAMGWYRQAPGKERELVAAISWRGSSTYYADSVKGRFTISRDHAKNTVYLQMNSLKPEDTAVYYCNADKANRYDWGQGTQVTVSS | high polyreactivity
33 | QVQLVESGGGLVQAGGSLRLSCAASGSTLTYNAMGWYRQAPGKERELVAVISARGGRTYYADSVKGRFTISRDNAKNTVYLQMNSLKPEDTAVYYCAAVFYYSYYRITSGDYWGQGTQVTVSS | high polyreactivity
34 | QVQLVESGGGLVQAGGSLRLSCAASGSIFRGNAMGWYRQAPGKERELVAAISKSGGSTYYADSVKGRFTISRDHAKNTVYLQMNSLKPEDTAVYYCAARTTYLYGMYYWGQGTQVTVSS | low polyreactivity
35 | QVHLVESGGGLVQAGGSLRLSCAASGSIFKYYAMGWYRQAPGKETELVAAISSGGTTNYADSVKGRFTISRDNAKNTVYFQMNSLKPEDTEVYYCAAYSTYFRRRKWGYDYWGQGTQVTVSS | high polyreactivity
36 | QVQLVESGGGLVQAGGSLRLSCAASGIILKYYAMGWNRQAPVKERELVAAITSSGDSTYYADSVKGRFTISRDNAKNTVYLQMNSLKPDDTAVYYCAALRFRGGQSTGRDRMDYWGQGTQVTVSS | high polyreactivity
37 | QVQLVESGGGLVQAGGSLRLSCAASGFIFSRNAMGWYRQAPGKERELVDRISRSGGRTYYADSVKGRFTISRDNAKNTVYLQMNSLKPEDTAVYYCATDHVRQSPYDYWGQGTQVTVSS | high polyreactivity
38 | QVQLVESGGGLVQAGGSLRLSCAASGFIFSRYAMGWYRQAPGKERELVAYITRRGGRTFYADSVKGRFTISRDNAKNTVYLQMNSLKPEDTAVYYCGADAYGLTLFYVFSYDYWGQGTQVTVSS | high polyreactivity
39 | QVQLVESGGGLVQAGGSLRLICAASGASFFDKDMGWYRQAPGKERELVAAAITARGGSTYYADSVKGRFTISRDNAKNTVYLQMNSLKPEDTAVYYCAAGRPGELDYWGQGTQVTVSS | low polyreactivity
40 | QVQLVESGGGLVQAGGSLRLSCAASGRTFWYNAMGWYRQAPGKERELVAVISSGAITYYADSVKGRFTISRDNAKNTVYLQMNSLKPEDTAVYYCNAQRRGTYYWGQGTQVTVSS | high polyreactivity
41 | QVKLVESGGGLVQAGGSLRLSCAASGITFYINAMGWYRQAPGKERELVAVIDSRGSSTFYADSVKGRFTISRDNAKNTVYLQMNSLKPEDTAVYYCAVEGYPGRYRDPGDLYYYWGQGTQVTLSS | low polyreactivity
42 | QVQLVDSGGCLVQAGGSHRLSCSASGRIYPWYAMVWYRQAPGKERELVASITRNGGDTYYADSVKGRFTISRDNAKNTVYLQMNSLKPEDTAVYYCNAVRGYWFRQKDTIELGYWGQGTQVTVSS | high polyreactivity
43 | QVQLVESGGGVVQAGGSLRLSCAASGSIIWWYAMGWYRQAPGKERELVARMNKRSGSTYYADSVKGRFTISRDNAKNTVYLLRNSLKPEDTAVYYCAATWRSSGIAFFYWGQGTQVTLSS | high polyreactivity
